In paper PMC6093649 one finds Kd data, which are given here for 1 molecule.

This assay addresses T1, Chp2 chromodomain (recombinant Chp2-CD, wild type) (S. pombe).
T1 sequence (O42934 whole entry, looked up): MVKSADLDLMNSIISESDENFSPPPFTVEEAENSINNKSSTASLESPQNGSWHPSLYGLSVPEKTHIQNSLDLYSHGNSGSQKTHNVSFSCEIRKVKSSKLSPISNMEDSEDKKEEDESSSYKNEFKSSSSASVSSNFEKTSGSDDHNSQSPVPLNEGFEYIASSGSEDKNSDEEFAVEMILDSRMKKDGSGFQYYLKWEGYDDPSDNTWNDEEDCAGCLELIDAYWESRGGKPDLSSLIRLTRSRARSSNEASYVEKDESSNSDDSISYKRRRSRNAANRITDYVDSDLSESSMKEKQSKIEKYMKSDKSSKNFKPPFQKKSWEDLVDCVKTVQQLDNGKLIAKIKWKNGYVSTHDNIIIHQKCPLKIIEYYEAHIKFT
Briefly: ITC; MicroCal VP-ITC, 20°C; Chp2-CD protein in 20 mM KPO4 pH 6.8, 100 mM NaCl; H3K9me3 peptide injected into the protein in 1-μl aliquots at 3-min intervals.

B1: K9-trimethylated histone H3 (H3K9me3) peptide (1–18) (peptide)
peptide: ARTKQTARKSTGGKAPRY
modifications: trimethyl-lysine at position 9 (Lys[Me]3)
With B1, the Kd is 4.37 µM.
